Assay results from article PMC5324060, “Evolutionary, computational, and biochemical studies of the salicylaldehyde dehydrogenases in the naphthalene degradation pathway” (Scientific Reports, 2017).

What was measured:
[1] = molecular target: T1, SALDan E175A (Alteromonas naphthalenivorans, UniProt F5Z5S7, E175A); experiment: Kinetics assay of SALDan mutant E175A; type: biochemical
T1 sequence (F5Z5S7 1-483 E175A): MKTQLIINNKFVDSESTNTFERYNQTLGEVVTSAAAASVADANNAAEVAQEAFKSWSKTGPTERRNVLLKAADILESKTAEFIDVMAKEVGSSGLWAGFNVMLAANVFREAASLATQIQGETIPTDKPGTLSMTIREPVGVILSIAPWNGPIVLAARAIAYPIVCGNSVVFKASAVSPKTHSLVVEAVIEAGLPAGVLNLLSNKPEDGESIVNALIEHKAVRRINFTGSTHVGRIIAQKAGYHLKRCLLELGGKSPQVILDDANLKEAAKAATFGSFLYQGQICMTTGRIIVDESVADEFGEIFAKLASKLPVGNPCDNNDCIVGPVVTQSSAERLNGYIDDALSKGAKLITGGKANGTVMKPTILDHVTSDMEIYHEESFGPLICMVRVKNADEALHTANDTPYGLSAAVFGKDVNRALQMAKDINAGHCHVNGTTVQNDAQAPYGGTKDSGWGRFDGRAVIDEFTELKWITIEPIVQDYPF
Text: (§1) The primers used for the single amino acid mutant were as follows: N149A, forward primer, 5′-ATAGCACCGTGGGCCGGGCCTATTGTATTA-3′; reverse primer, 5′-TAATACAATAGGCCCGGCCCACGGTGCTAT-3′; V153A, forward primer, 5′-AATGGGCCTATTGTATTAGCGGCTCGG-3′; reverse primer, 5′-CCGAGCCGCTAATACAATAGGCCCATT-3′; E175A, forward primer, 5′-[…]-3′, reverse primer, 5′-GTTGGGACAGTCTTCCAGCCC-3′; E175A, forward primer, 5′-ATGCTCCACCAAATTGGGCAC-3′; reverse primer, 5′-TTTAGGACTTACTTCTGAAGCTTTAAA-3′. The PCR was performed using Pfu polymerase, and the cycling parameters were: 95 °C for 5 min (one cycle), 95 °C for 30 s, and 68 °C for 12 min (12 cycles). After amplification, the PCR mixture was digested with DpnI and then transformed into E. coli BL21(DE3) by electroporation. The mutants were confirmed by DNA sequencing.
(§2) The activity of the purified proteins was determined using SAL as a substrate. A reaction volume of 500 μL was prepared in a microfuge tube containing purified SALDan (0.1 μM), SAL (100 μM), and NAD^+ (100 μM) dissolved in 50 mM HEPES (pH 7.5) containing 150 mM NaCl. The SALDan activity was monitored as the rate of appearance of NADH at 340 nm spectrophotometrically. The specific activity of the enzyme (units.mg^−1.min^−1) was expressed as the amount of enzyme required to produce 1 μM of NADH under the assay conditions. The influence of pH on the activity was determined using the protocol described above, with the exception of replacing the […] buffer with 50 mM sodium acetate (pH 3.0–5.0), 50 mM 2-(N-morpholino)ethanesulfonic acid (pH 5.0–7.5), 50 mM HEPES (pH 8.0–8.5), 50 mM glycine (pH 9.0–10.0), or 50 mM sodium phosphate (pH 11.0)[52]. All assays were performed at the optimal temperature. To determine the influence of temperature on the enzymatic activity, the reactions were performed at 15, 20, 25, 30, 35, 40, and 45 °C, respectively.
(§3) For kinetic studies of aldehydes, the initial velocities of the enzymatic reactions were examined by varying the concentrations of various aromatic as well as aliphatic aldehydes in the presence of NAD^+ (100 μM) and the enzyme (0.1 μM) under optimal conditions. For substrates that absorb at 340 nm, thus interfering with the calculation of the initial rate, their molar coefficients (ε) were calculated as described previously[64] and are presented in Table S1. The apparent kinetic parameters were calculated using the equation: […]
(§4) The apparent kinetic parameters for NAD^+ were determined at a fixed concentration of SAL (50 μM) and a varying concentration of NAD^+ (0–500 μM). The apparent Km and Vmax values were calculated by using the equation: […]
(§5) All the activity data were determined by three separate experiments with at least three technical replicates.

[2] = molecular target: SALDan (Alteromonas naphthalenivorans, UniProt F5Z5S7); experiment: Kinetics assay of wild-type recombinant SALDan (NADH appearance at 340 nm); type: biochemical
Description: as §2, §3, §4, §5

[3] = molecular target: T2, SALDan N149A (Alteromonas naphthalenivorans, UniProt F5Z5S7, N149A); experiment: Kinetics assay of SALDan mutant N149A; type: biochemical
T2 sequence (F5Z5S7 1-483 N149A): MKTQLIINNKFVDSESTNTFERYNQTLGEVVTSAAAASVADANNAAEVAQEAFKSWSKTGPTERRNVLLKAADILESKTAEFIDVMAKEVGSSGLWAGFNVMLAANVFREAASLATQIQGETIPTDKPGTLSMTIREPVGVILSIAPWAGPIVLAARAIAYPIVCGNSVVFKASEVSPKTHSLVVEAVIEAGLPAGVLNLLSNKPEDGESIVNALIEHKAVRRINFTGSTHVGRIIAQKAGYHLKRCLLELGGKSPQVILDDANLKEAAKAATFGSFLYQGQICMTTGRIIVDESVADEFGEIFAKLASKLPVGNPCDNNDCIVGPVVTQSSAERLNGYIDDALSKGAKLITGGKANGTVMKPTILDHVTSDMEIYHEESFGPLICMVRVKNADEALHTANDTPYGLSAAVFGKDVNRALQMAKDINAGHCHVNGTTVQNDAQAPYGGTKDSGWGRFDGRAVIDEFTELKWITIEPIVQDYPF
Text: as §1, with “After amplification, the PCR mixture was digested with DpnI and then transformed into E. coli BL21(DE3) by electroporation. The mutants were confirmed by DNA sequencing.” left out
(§6) The activity of the purified proteins was determined using SAL as a substrate. […] The SALDan activity was monitored as the rate of appearance of NADH at 340 nm spectrophotometrically. The specific activity of the enzyme (units.mg^−1.min^−1) was expressed as the amount of enzyme required to produce 1 μM of NADH under the assay conditions. The influence of pH on the activity was determined using the protocol described above, with the exception of replacing the Tris-HCl buffer with 50 mM sodium acetate (pH 3.0–5.0), 50 mM 2-(N-morpholino)ethanesulfonic acid (pH 5.0–7.5), 50 mM HEPES (pH 8.0–8.5), 50 mM glycine (pH 9.0–10.0), or 50 mM sodium phosphate (pH 11.0)[52]. […]

[4] = molecular target: T3, SALDan V153A (Alteromonas naphthalenivorans, UniProt F5Z5S7, V153A); experiment: Kinetics assay of SALDan mutant V153A; type: biochemical
T3 sequence (F5Z5S7 1-483 V153A): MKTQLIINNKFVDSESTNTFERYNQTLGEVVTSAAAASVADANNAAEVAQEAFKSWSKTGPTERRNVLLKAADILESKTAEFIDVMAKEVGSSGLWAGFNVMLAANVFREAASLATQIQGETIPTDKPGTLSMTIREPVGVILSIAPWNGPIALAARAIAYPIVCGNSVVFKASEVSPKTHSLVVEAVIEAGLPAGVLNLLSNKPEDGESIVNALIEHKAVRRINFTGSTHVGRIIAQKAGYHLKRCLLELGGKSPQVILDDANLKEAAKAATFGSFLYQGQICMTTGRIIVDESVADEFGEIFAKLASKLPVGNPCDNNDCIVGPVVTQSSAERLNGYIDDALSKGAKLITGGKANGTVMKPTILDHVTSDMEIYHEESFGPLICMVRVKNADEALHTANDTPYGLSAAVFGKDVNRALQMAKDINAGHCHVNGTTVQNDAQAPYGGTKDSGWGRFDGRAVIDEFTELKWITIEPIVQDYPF
Text: as §1, §6, §3

[5] = substrate: O=Cc1ccc(Cl)cc1; experiment: purified protein, by the assay type; conditions: other: wild-type; aldehyde varied at NAD^+ 100 μM, enzyme 0.1 μM; for NAD^+: SAL fixed 50 μM, NAD^+ 0–500 μM; 45.0 °C
[6] = substrate: O=Cc1ccc([N+](=O)[O-])cc1; experiment: purified protein, by the assay type; conditions: other: wild-type; aldehyde varied at NAD^+ 100 μM, enzyme 0.1 μM; for NAD^+: SAL fixed 50 μM, NAD^+ 0–500 μM; 45.0 °C
[7] = substrate: O=Cc1cccc(Cl)c1; experiment: purified protein, by the assay type; conditions: other: wild-type; aldehyde varied at NAD^+ 100 μM, enzyme 0.1 μM; for NAD^+: SAL fixed 50 μM, NAD^+ 0–500 μM; 45.0 °C
[8] = substrate: NC(=O)c1ccc[n+]([C@@H]2O[C@H](COP(=O)([O-])OP(=O)(O)OC[C@H]3O[C@@H](n4cnc5c(N)ncnc54)[C@H](O)[C@@H]3O)[C@@H](O)[C@H]2O)c1; experiment: Kinetics assay of wild-type recombinant SALDan (NADH appearance at 340 nm); type: biochemical, Alteromonas naphthalenivorans; conditions: other: wild-type; aldehyde varied at NAD^+ 100 μM, enzyme 0.1 μM; for NAD^+: SAL fixed 50 μM, NAD^+ 0–500 μM; 45.0 °C
[9] = substrate: O=Cc1ccccc1O; experiment: as above; type: biochemical, Alteromonas naphthalenivorans; conditions: other: wild-type; aldehyde varied at NAD^+ 100 μM, enzyme 0.1 μM; for NAD^+: SAL fixed 50 μM, NAD^+ 0–500 μM; 45.0 °C
[10] = substrate: O=Cc1ccc2ccccc2c1; experiment: as above; type: biochemical, Alteromonas naphthalenivorans; conditions: other: wild-type; aldehyde varied at NAD^+ 100 μM, enzyme 0.1 μM; for NAD^+: SAL fixed 50 μM, NAD^+ 0–500 μM; 45.0 °C
[11] = substrate: O=Cc1ccccc1Cl; experiment: as above; type: biochemical, Alteromonas naphthalenivorans; conditions: other: wild-type; aldehyde varied at NAD^+ 100 μM, enzyme 0.1 μM; for NAD^+: SAL fixed 50 μM, NAD^+ 0–500 μM; 45.0 °C
[12] = substrate: O=CCCCC=O; experiment: as above; type: biochemical, Alteromonas naphthalenivorans; conditions: other: wild-type; aldehyde varied at NAD^+ 100 μM, enzyme 0.1 μM; for NAD^+: SAL fixed 50 μM, NAD^+ 0–500 μM; 45.0 °C
[13] = molecular target: the molecule itself; experiment: cross-linking; purified SALDan (0.5 mg/ml) with 0.1% aldehyde for various periods at 25 °C, quenched with 1 M Tris-HCl, SDS-PAGE and Coomassie staining
[14] = molecular target: the molecule itself; experiment: SEC; purified SALDan on a Superdex 200 10/300 GL column, against standards ferritin, catalase, alcohol dehydrogenase, albumin, ovalbumin; one peak at approximately 160 kDa (monomer approximately 53 kDa)

O=Cc1ccccc1O [Salicylaldehyde]
Ki [1]: 462 ± 51.4 µM | change of apparent Km value ([1]; E175A mutant versus wild-type): increased | change of kcat/Km (catalytic efficiency) ([1]; E175A mutant versus wild-type): decreased by six times | Ki [2]: 379 ± 45.2 µM | activity relative to the maximal velocity ([2]; wild-type, assayed at 200 μM substrate, substrate inhibition): approximately 80% | substrate concentration at which the highest velocity is achieved ([2]; wild-type, velocity versus substrate plot): 40 µM | Ki [3]: 447 ± 52.6 µM | change of catalytic efficiency compared with the wild-type protein ([3]; N149A mutant): decreased by about three times | Ki [4]: 428 ± 49.4 µM | effect on the kinetic parameters ([4]; V153A mutant versus wild-type): no significant effect

B1: Salicylaldehyde dehydrogenase from Alteromonas naphthalenivorans (SALDan) (enzyme, UniProt F5Z5S7 1-483, looked up)
chain: MKTQLIINNKFVDSESTNTFERYNQTLGEVVTSAAAASVADANNAAEVAQEAFKSWSKTGPTERRNVLLKAADILESKTAEFIDVMAKEVGSSGLWAGFNVMLAANVFREAASLATQIQGETIPTDKPGTLSMTIREPVGVILSIAPWNGPIVLAARAIAYPIVCGNSVVFKASEVSPKTHSLVVEAVIEAGLPAGVLNLLSNKPEDGESIVNALIEHKAVRRINFTGSTHVGRIIAQKAGYHLKRCLLELGGKSPQVILDDANLKEAAKAATFGSFLYQGQICMTTGRIIVDESVADEFGEIFAKLASKLPVGNPCDNNDCIVGPVVTQSSAERLNGYIDDALSKGAKLITGGKANGTVMKPTILDHVTSDMEIYHEESFGPLICMVRVKNADEALHTANDTPYGLSAAVFGKDVNRALQMAKDINAGHCHVNGTTVQNDAQAPYGGTKDSGWGRFDGRAVIDEFTELKWITIEPIVQDYPF
notes: Salicylaldehyde dehydrogenase (EC 1.2.1.65) of Alteromonas naphthalenivorans, UniProt F5Z5S7; amplified from genomic DNA with primers from the ATG start codon to the stop codon; about 53 kDa on SDS-PAGE; Cloned between BamHI and HindIII of pET28a; also called SAL dehydrogenase; WT; source: E. coli BL21 (DE3), pET28a, purified (Ni-NTA column)
Km [5]: 5.5 ± 1.1 µM | Vmax [5]: 74.2 µmol/min/mg | kcat [5]: 186 s⁻¹ | kcat/Km [5]: 3.37e+07 M⁻¹ s⁻¹ | Km [6]: 6.5 ± 0.9 µM | Vmax [6]: 32.3 µmol/min/mg | kcat [6]: 80.2 s⁻¹ | kcat/Km [6]: 1.23e+07 M⁻¹ s⁻¹ | Km [7]: 4.8 ± 0.7 µM | Vmax [7]: 56.8 µmol/min/mg | kcat [7]: 142 s⁻¹ | kcat/Km [7]: 2.96e+07 M⁻¹ s⁻¹ | Km [8]: 39.5 ± 3.2 µM | Vmax [8]: 94.1 µmol/min/mg | kcat [8]: 234 ± 24.2 s⁻¹ | kcat/Km [8]: 5.9e+06 ± 500000 M⁻¹ s⁻¹ | Km [9]: 3.8 ± 0.5 µM | Vmax [9]: 49.5 µmol/min/mg | kcat [9]: 124 ± 13.6 s⁻¹ | kcat/Km [9]: 3.25e+07 ± 4.2e+06 M⁻¹ s⁻¹ | Km [10]: 3.4 ± 0.5 µM | Vmax [10]: 61.4 µmol/min/mg | kcat [10]: 153 ± 14.4 s⁻¹ | kcat/Km [10]: 4.5e+07 ± 4.4e+06 M⁻¹ s⁻¹ | Km [11]: 3.2 ± 0.3 µM | Vmax [11]: 45.6 µmol/min/mg | kcat [11]: 114 ± 17.2 s⁻¹ | kcat/Km [11]: 3.57e+07 ± 4.5e+06 M⁻¹ s⁻¹ | Km [12]: 560 ± 46.0 µM | Vmax [12]: 11.6 µmol/min/mg | kcat [12]: 29.6 ± 3.7 s⁻¹ | kcat/Km [12]: 53000 M⁻¹ s⁻¹ | stoichiometry N [13]: 3 | stoichiometry N [14]: 3 subunits
